Our source for the signal to noise ratio (RLU with peptide-pulsed APCs / RLU with non-pulsed APCs), Dex+ CD8+ (share of cells in the gate) and Signal to Noise (S/N) ratio (RLU to peptide pulsed APCs divided by RLU to non-pulsed APCs), AP-1 luciferase reporter T cells values is patent US20210403527A1.

Experiment [1] deals with NY-ESO-1 peptide on HLA-A*02:01 (human). Briefly: AP-1 luciferase reporter; Jurkat J.RT3.T3.5 with CD8A/B; HLA-A2+ 293T cells pulsed with 100 uM NY-ESO-1 peptide; full-length, on cells.
The target of experiment [2] is composite TCR 001 (human variable domains, mouse constant domains) (mouse) (UniProt P01849). Kind of experiment: Flow cytometry, dextramer against CD8a, sorted T cells expressing composite TCR 001 after 12 days of post-sort expansion, left panel. In general terms: Flow cytometry measures light scatter and fluorescence of single cells or particles in a stream.
Experiment [3] addresses HLA-A2/NY-ESO-1 (157-165) complex on cells (human). Briefly: cell-based or functional assay.

Chain of composite TCR 001 (human variable domains, mouse constant domains) (mouse) (P01849 other isoform, or with tags, fused parts or gaps, chain 1 of 2): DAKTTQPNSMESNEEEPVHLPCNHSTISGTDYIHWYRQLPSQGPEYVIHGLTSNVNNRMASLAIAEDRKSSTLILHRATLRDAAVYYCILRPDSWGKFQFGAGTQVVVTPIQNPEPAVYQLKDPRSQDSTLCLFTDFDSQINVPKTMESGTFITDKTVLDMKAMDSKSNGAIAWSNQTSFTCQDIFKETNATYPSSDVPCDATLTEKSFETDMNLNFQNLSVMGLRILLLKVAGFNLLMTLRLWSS
Chain of composite TCR 001 (human variable domains, mouse constant domains) (mouse) (P01852 other isoform, or with tags, fused parts or gaps, chain 2 of 2, further chain): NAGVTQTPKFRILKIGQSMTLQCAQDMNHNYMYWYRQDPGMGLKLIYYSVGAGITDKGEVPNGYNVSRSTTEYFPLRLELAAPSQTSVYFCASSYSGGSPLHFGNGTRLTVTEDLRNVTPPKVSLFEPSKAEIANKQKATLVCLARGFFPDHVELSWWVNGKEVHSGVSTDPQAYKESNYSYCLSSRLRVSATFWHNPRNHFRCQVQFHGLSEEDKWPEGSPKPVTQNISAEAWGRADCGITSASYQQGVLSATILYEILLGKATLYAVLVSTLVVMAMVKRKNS

Consider 1G4, for which, in experiment [1], the signal to noise ratio (RLU with peptide-pulsed APCs / RLU with non-pulsed APCs) was 6.3.

Control Dextramer (peptide-MHC) registered a Dex+ CD8+ (share of cells in the gate) in experiment [2] of 0.52. In the case of “patient-derived NY-ESO-1 specific comparator TCR 1G4”, the Signal to Noise (S/N) ratio (RLU to peptide pulsed APCs divided by RLU to non-pulsed APCs), AP-1 luciferase reporter T cells in experiment [3] was determined as 6.3.
